Results reported in publication PMC5115963 (Molecular cell, 2016).

Target: T1, Rrp44 D171N/D551N (S. cerevisiae, UniProt Q08162 1-1001, D171N | D551N)
T1 sequence: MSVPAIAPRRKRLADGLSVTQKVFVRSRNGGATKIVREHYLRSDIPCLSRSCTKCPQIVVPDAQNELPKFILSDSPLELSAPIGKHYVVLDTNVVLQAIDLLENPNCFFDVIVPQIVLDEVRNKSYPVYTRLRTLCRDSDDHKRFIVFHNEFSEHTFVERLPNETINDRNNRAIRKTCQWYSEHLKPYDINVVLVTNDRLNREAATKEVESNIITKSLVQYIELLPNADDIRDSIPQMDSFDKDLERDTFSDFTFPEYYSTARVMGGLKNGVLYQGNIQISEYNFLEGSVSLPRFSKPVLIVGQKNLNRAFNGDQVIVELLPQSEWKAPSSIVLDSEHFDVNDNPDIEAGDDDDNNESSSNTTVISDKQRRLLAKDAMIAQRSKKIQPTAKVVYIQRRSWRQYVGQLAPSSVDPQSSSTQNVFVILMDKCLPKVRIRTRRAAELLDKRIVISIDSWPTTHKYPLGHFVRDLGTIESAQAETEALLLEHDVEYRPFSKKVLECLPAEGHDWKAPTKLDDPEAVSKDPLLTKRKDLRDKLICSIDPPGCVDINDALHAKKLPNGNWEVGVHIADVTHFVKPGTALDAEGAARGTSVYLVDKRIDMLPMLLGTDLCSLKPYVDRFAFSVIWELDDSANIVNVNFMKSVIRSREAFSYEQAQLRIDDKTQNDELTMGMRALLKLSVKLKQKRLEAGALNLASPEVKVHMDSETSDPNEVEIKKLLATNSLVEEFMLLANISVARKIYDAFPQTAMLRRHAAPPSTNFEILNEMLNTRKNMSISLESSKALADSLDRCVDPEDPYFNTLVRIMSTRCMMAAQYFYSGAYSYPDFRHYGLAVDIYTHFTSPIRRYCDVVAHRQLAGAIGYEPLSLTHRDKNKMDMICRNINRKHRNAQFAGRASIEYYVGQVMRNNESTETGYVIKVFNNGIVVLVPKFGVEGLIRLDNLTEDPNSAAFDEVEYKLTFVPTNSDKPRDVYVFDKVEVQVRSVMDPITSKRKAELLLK
Experiment: crystal structure

- binding result: binds
B1: Rrp43 (natural protein, S. cerevisiae)
chain: MAESTTLETIEIHPITFPPEVLARISPELSLQRHLSLGIRPCLRKYEEFRDVAIENNTLSRYADAGNIDTKNNILGSNVLKSGKTIVITSITGGIIEETSAAIKDLDDFGEEELFEVTKEEDIIANYASVYPVVEVERGRVGACTDEEMTISQKLHDSILHSRILPKKALKVKAGVRSANEDGTFSVLYPDELEDDTLNETNLKMKRKWSYVLYAKIVVLSRTGPVFDLCWNSLMYALQSVKLPRAFIDERASDLRMTIRTRGRSATIRETYEIICDQTKSVPLMINAKNIAFASNYGIVELDPECQLQNSDNSEEEEVDIDMDKLNTVLIADLDTEAEETSIHSTISILAAPSGNYKQLTLVGGGAKITPEMIKRSLLLSRVRADDLSTRFNI
